Source: patent publication US20150344570A1 (published 2015)

T1: FcγRIIb extracellular domain with C-terminal His tag (human, UniProt P31994 43-217)
T1 construct: extracellular domain; Soluble receptor expressed in FreeStyle293 cells and used as analyte in Biacore; also called FcgRIIb; 2b; not shown: His tag at the C terminus
T1 sequence (looked up): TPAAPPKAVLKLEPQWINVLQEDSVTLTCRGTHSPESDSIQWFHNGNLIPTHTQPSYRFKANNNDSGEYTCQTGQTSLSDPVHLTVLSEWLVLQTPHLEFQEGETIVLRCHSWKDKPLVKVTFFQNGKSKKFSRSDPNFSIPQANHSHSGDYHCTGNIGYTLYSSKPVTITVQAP


How the values were obtained:
FcγRIIIa = biological target: T2, FcγRIIIa (human, UniProt P08637 17-208); assay: SPR (Biacore), antibody captured on antigen-peptide chip, FcγR as analyte; binding of He Ab / binding of HeCon Ab GpH7-A5/GpH7-B3/GpL16-k0 x 100
T2 construct: extracellular domain; also called 3a; FcgRIIIa

[1] = biological target: T3, FcγRIIIa extracellular domain with C-terminal His tag (human, UniProt P08637 17-208); assay: SPR (Biacore); He/Con for FcγRIIIa divided by He/Con for FcγRIIb
T3 construct: extracellular domain; also called FcgRIIIa; 3a; not shown: His tag at the C terminus
Protocol: (§1) The heterodimerized antibodies He Abs in which one of the H chains was introduced with an alteration were assayed for their binding activities to each activating FcγR and inhibitory FcγR according to the method described in Example 4. […] The activating FcγRs in FIGS. 26, 27, 28, and 29 are FcγRIa, FcγRIIa (R), FcγRIIa (H), and FcγRIIIa, respectively.
(§2) Analysis of interaction between objective antibody and the FcγR was carried out using Biacore T100 (GE Healthcare). HBS-EP+ (GE Healthcare) was used as the running buffer, and the measurement temperature was set to 25° C. Chips produced by immobilizing the antigen peptide by the amine coupling method to a Series S Sencor Chip CM5 (GE Healthcare), or alternatively, chips produced by allowing preliminarily biotinylated antigen peptides to interact with and immobilize onto a Series S Sensor Chip SA (certified) (GE Healthcare) were used. Antibodies of interest were captured onto an antigen peptide-immobilized chip, and allowed to interact to each FcγR diluted with running buffer. To regenerate and repeatedly use the chip, the antibodies captured on the chip were washed off by reacting 10 mM glycine-HCl, pH 1.5.

[2] = biological target: T1, FcγRIIb extracellular domain with …; assay: SPR (Biacore), antibody captured on antigen-peptide chip, FcγR as analyte; relative binding amount
Protocol: as §1, §2

[3] = biological target: T3, FcγRIIIa extracellular domain with …; assay: as above
Protocol: as §1, §2

T3 sequence (P08637 17-208): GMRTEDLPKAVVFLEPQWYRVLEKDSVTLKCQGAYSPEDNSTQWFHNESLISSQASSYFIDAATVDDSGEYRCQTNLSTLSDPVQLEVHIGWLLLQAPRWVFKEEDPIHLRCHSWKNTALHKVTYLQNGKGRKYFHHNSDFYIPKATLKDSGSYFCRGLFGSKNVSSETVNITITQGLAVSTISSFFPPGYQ
T2 sequence (P08637 17-208): as above

| He/Con_3a (FcγRIIIa) | He_3a/2b (IIIa/IIb) [1] | He/Con_2b (IIb binding) [2] | He/Con_3a (IIIa binding) [3] | Binder |
| --- | --- | --- | --- | --- |
| 102 relative to control = 100 | – | – | – | GpH7-A5/GpH7-B3 variant T335_06M/GpL16-k0 (He Ab) (antibody, human IgG1, kappa, Heterodimerized anti-glypican-3 antibody; the alteration stands only in the GpH7-B3 chain) heavy 1: not shown heavy 2: not shown light: DIVMTQSPLSLPVTPGEPASISCQASESLVHSNRNTYLHWYLQKPGQSPQLLIYKVSNRFSGVPDRFSGSGSGTDFTLKISRVEAEDVGVYYCSQNTHVPPTFGQGTKVEIERTVAAPSVFIFPPSDEQLKSGTASVVCLLNNFYPREAKVQWKVDNALQSGNSQESVTEQDSKDSTYSLSSTLTLSKADYEKHKVYACEVTHQGLSSPVTKSFNRGEC |
| – | 1.24 ratio | 90.3 relative, GpH7-A5/GpH7-B3/GpL16-k0 = 100 | 112 relative, GpH7-A5/GpH7-B3/GpL16-k0 = 100 | GpH7-A5/GpH7-B3 variant I336_03V/GpL16-k0 (antibody, human IgG1, kappa, Heterodimerized anti-glypican-3 IgG1 (He Ab); The mutation is in the GpH7-B3 chain only; also called He Ab with I336V in GpH7-B3) heavy 1: not shown heavy 2: not shown light: DIVMTQSPLSLPVTPGEPASISCQASESLVHSNRNTYLHWYLQKPGQSPQLLIYKVSNRFSGVPDRFSGSGSGTDFTLKISRVEAEDVGVYYCSQNTHVPPTFGQGTKVEIERTVAAPSVFIFPPSDEQLKSGTASVVCLLNNFYPREAKVQWKVDNALQSGNSQESVTEQDSKDSTYSLSSTLTLSKADYEKHKVYACEVTHQGLSSPVTKSFNRGEC |
| 105 relative to control = 100 | – | – | – | GpH7-A5/GpH7-B3 variant Y300_08L/GpL16-k0 (He Ab) (antibody, human IgG1, kappa, Heterodimerized anti-glypican-3 antibody; the alteration stands only in the GpH7-B3 chain) heavy 1: not shown heavy 2: not shown light: DIVMTQSPLSLPVTPGEPASISCQASESLVHSNRNTYLHWYLQKPGQSPQLLIYKVSNRFSGVPDRFSGSGSGTDFTLKISRVEAEDVGVYYCSQNTHVPPTFGQGTKVEIERTVAAPSVFIFPPSDEQLKSGTASVVCLLNNFYPREAKVQWKVDNALQSGNSQESVTEQDSKDSTYSLSSTLTLSKADYEKHKVYACEVTHQGLSSPVTKSFNRGEC |
| 181 relative to control = 100 | – | – | – | GpH7-A5/GpH7-B3 variant S239_10E/GpL16-k0 (He Ab) (antibody, human IgG1, kappa, Heterodimerized anti-glypican-3 antibody; the alteration stands only in the GpH7-B3 chain) heavy 1: not shown heavy 2: not shown light: DIVMTQSPLSLPVTPGEPASISCQASESLVHSNRNTYLHWYLQKPGQSPQLLIYKVSNRFSGVPDRFSGSGSGTDFTLKISRVEAEDVGVYYCSQNTHVPPTFGQGTKVEIERTVAAPSVFIFPPSDEQLKSGTASVVCLLNNFYPREAKVQWKVDNALQSGNSQESVTEQDSKDSTYSLSSTLTLSKADYEKHKVYACEVTHQGLSSPVTKSFNRGEC |
| 102 relative to control = 100 | – | – | – | GpH7-A5/GpH7-B3 variant S337_01G/GpL16-k0 (He Ab) (antibody, human IgG1, kappa, Heterodimerized anti-glypican-3 antibody; the alteration stands only in the GpH7-B3 chain) heavy 1: not shown heavy 2: not shown light: DIVMTQSPLSLPVTPGEPASISCQASESLVHSNRNTYLHWYLQKPGQSPQLLIYKVSNRFSGVPDRFSGSGSGTDFTLKISRVEAEDVGVYYCSQNTHVPPTFGQGTKVEIERTVAAPSVFIFPPSDEQLKSGTASVVCLLNNFYPREAKVQWKVDNALQSGNSQESVTEQDSKDSTYSLSSTLTLSKADYEKHKVYACEVTHQGLSSPVTKSFNRGEC |
| 105 relative to control = 100 | – | – | – | GpH7-A5/GpH7-B3 variant T335_05P/GpL16-k0 (He Ab) (antibody, human IgG1, kappa, Heterodimerized anti-glypican-3 antibody; the alteration stands only in the GpH7-B3 chain) heavy 1: not shown heavy 2: not shown light: DIVMTQSPLSLPVTPGEPASISCQASESLVHSNRNTYLHWYLQKPGQSPQLLIYKVSNRFSGVPDRFSGSGSGTDFTLKISRVEAEDVGVYYCSQNTHVPPTFGQGTKVEIERTVAAPSVFIFPPSDEQLKSGTASVVCLLNNFYPREAKVQWKVDNALQSGNSQESVTEQDSKDSTYSLSSTLTLSKADYEKHKVYACEVTHQGLSSPVTKSFNRGEC |
| 102 relative to control = 100 | – | – | – | GpH7-A5/GpH7-B3 variant S324_20W/GpL16-k0 (He Ab) (antibody, human IgG1, kappa, Heterodimerized anti-glypican-3 antibody; the alteration stands only in the GpH7-B3 chain) heavy 1: not shown heavy 2: not shown light: DIVMTQSPLSLPVTPGEPASISCQASESLVHSNRNTYLHWYLQKPGQSPQLLIYKVSNRFSGVPDRFSGSGSGTDFTLKISRVEAEDVGVYYCSQNTHVPPTFGQGTKVEIERTVAAPSVFIFPPSDEQLKSGTASVVCLLNNFYPREAKVQWKVDNALQSGNSQESVTEQDSKDSTYSLSSTLTLSKADYEKHKVYACEVTHQGLSSPVTKSFNRGEC |
| – | 1.33 ratio | 89.8 relative, GpH7-A5/GpH7-B3/GpL16-k0 = 100 | 119 relative, GpH7-A5/GpH7-B3/GpL16-k0 = 100 | GpH7-A5/GpH7-B3 variant I336_10E/GpL16-k0 (antibody, human IgG1, kappa, Heterodimerized anti-glypican-3 IgG1 (He Ab); The mutation is in the GpH7-B3 chain only; also called He Ab with I336E in GpH7-B3) heavy 1: not shown heavy 2: not shown light: DIVMTQSPLSLPVTPGEPASISCQASESLVHSNRNTYLHWYLQKPGQSPQLLIYKVSNRFSGVPDRFSGSGSGTDFTLKISRVEAEDVGVYYCSQNTHVPPTFGQGTKVEIERTVAAPSVFIFPPSDEQLKSGTASVVCLLNNFYPREAKVQWKVDNALQSGNSQESVTEQDSKDSTYSLSSTLTLSKADYEKHKVYACEVTHQGLSSPVTKSFNRGEC |
| 103 relative to control = 100 | – | – | – | GpH7-A5/GpH7-B3 variant S324_14T/GpL16-k0 (He Ab) (antibody, human IgG1, kappa, Heterodimerized anti-glypican-3 antibody; the alteration stands only in the GpH7-B3 chain) heavy 1: not shown heavy 2: not shown light: DIVMTQSPLSLPVTPGEPASISCQASESLVHSNRNTYLHWYLQKPGQSPQLLIYKVSNRFSGVPDRFSGSGSGTDFTLKISRVEAEDVGVYYCSQNTHVPPTFGQGTKVEIERTVAAPSVFIFPPSDEQLKSGTASVVCLLNNFYPREAKVQWKVDNALQSGNSQESVTEQDSKDSTYSLSSTLTLSKADYEKHKVYACEVTHQGLSSPVTKSFNRGEC |
